1 substance from article PMC7549792 can be followed below.

The assay addresses Human serum albumin domain I (human). As to the kind of experiment: SEC; analytical Superdex 75 10/300 calibrated with known proteins; 100 uL of purified DomI at 90 ug/mL; Tris 50 mM, pH 8, 100 mM NaCl; 0.8 mL/min; dimer non-covalent by reducing and non-reducing SDS-PAGE. (Size exclusion chromatography separates by hydrodynamic size, large species first.)

For orientation: stoichiometry N means the number of molecules, sites or subunits per partner or assembly. In turn, “Human serum albumin domain I (domain or fragment)” yielded a stoichiometry N of 2.
